Key:
[1] = tested on: consensus RXRE 5′-AGGTCAnAGGTCA-3′; test: luciferase reporter bearing one RXRE, COS-1 cells; assay type: cell-based, African green monkey; conditions: RXRα with 10^−6 M 9-cis retinoic acid
Method: (§1) An ERE drives the expression of the firefly luciferase cDNA as the reporter enzyme from the TATA box promoter. […] The reporter vector contains no (TATA) or two ERE half sites with 0, 1, 2, 3, 4, 5, 10 or 15 non-specific central nucleotides. FIGS. 4C and 4D show COS-1 cells were transfected with expression vectors bearing none (V), RXRα (Panel C) PR (Panel D), ERα, (VP16)2-CDC-(p65)2 or (p65)2-CDC-(VP16)2 cDNA. Cells were treated with 10^−6 M 9-cis-retinoic acid for RXRα, 10^−8 M Progesterone for PR or 10^−9 M E2 for ERα for 24 h. The TATA box reporter vector bears one consensus RXRE 5′-AGGTCAnAGGTCA-′3 (Panel C) or PRE 5′-AGAACAnnnTGTTCT-3′ (panel D) that drives the expression of the reporter firefly luciferase cDNA. Normalized luciferase values represented as fold change are the mean±SEM of three independent experiments performed in duplicate.
(§2) Culturing and transfection of the mammalian COS-1 and […] MDA-MB-231 cells were described previously (Muyan, M. et al. (2001) Mol Cell Endocrinol 182,249-263; Yi, P. et al. (2002) Mol Endocrinol 16, 1810-1827), with the exceptions that 48 well cell culture plates were used and Trans-IT LTI transfection reagent (Mirus Corp., Madison, Wis.). Luciferase assays were performed with a Dual Luciferase Assay kit (Promega) according to the manufacture's recornmendations. […]

[2] = tested on: PRE 5′-AGAACAnnnTGTTCT-3′; test: luciferase reporter bearing a single PRE, COS-1 cells; assay type: cell-based, African green monkey; conditions: PR with 10^−8 M Progesterone
Method: as §1, §2

Molecule	luciferase activity from a reporter plasmid bearing one RXRE [1]	reporter enzyme activity from a single PRE [2]
Retinoic X Receptor α (protein, UniProt P19793 1-462, looked up, treated with 9-cis retinoic acid, expressed from vector, treated with 9-cis retinoic acid) Retinoic acid receptor …: MDTKHFLPLDFSTQVNSSLTSPTGRGSMAAPSLHPSLGPGIGSPGQLHSPISTLSSPINGMGPPFSVISSPMGPHSMSVPTTPTLGFSTGSPQLSSPMNPVSSSEDIKPPLGLNGVLKVPAHPSGNMASFTKHICAICGDRSSGKHYGVYSCEGCKGFFKRTVRKDLTYTCRDNKDCLIDKRQRNRCQYCRYQKCLAMGMKREAVQEERQRGKDRNENEVESTSSANEDMPVERILEAELAVEPKTETYVEANMGLNPSSPNDPVTNICQAADKQLFTLVEWAKRIPHFSELPLDDQVILLRAGWNELLIASFSHRSIAVKDGILLATGLHVHRNSAHSAGVGAIFDRVLTELVSKMRDMQMDKTELGCLRAIVLFNPDSKGLSNPAEVEALREKVYASLEAYCKHKYPEQPGRFAKLLLRLPALRSIGLKCLEHLFFFKLIGDTPIDTFLMEMLEAPHQMT	augmented the enzyme activity	
Progesterone Receptor (protein, UniProt P06401 1-933, looked up, expressed from vector, treated with Progesterone) Progesterone receptor: MTELKAKGPRAPHVAGGPPSPEVGSPLLCRPAAGPFPGSQTSDTLPEVSAIPISLDGLLFPRPCQGQDPSDEKTQDQQSLSDVEGAYSRAEATRGAGGSSSSPPEKDSGLLDSVLDTLLAPSGPGQSQPSPPACEVTSSWCLFGPELPEDPPAAPATQRVLSPLMSRSGCKVGDSSGTAAAHKVLPRGLSPARQLLLPASESPHWSGAPVKPSPQAAAVEVEEEDGSESEESAGPLLKGKPRALGGAAAGGGAAAVPPGAAAGGVALVPKEDSRFSAPRVALVEQDAPMAPGRSPLATTVMDFIHVPILPLNHALLAARTRQLLEDESYDGGAGAASAFAPPRSSPCASSTPVAVGDFPDCAYPPDAEPKDDAYPLYSDFQPPALKIKEEEEGAEASARSPRSYLVAGANPAAFPDFPLGPPPPLPPRATPSRPGEAAVTAAPASASVSSASSSGSTLECILYKAEGAPPQQGPFAPPPCKAPGASGCLLPRDGLPSTSASAAAAGAAPALYPALGLNGLPQLGYQAAVLKEGLPQVYPPYLNYLRPDSEASQSPQYSFESLPQKICLICGDEASGCHYGVLTCGSCKVFFKRAMEGQHNYLCAGRNDCIVDKIRRKNCPACRLRKCCQAGMVLGGRKFKKFNKVRVVRALDAVALPQPVGVPNESQALSQRFTFSPGQDIQLIPPLINLLMSIEPDVIYAGHDNTKPDTSSSLLTSLNQLGERQLLSVVKWSKSLPGFRNLHIDDQITLIQYSWMSLMVFGLGWRSYKHVSGQMLYFAPDLILNEQRMKESSFYSLCLTMWQIPQEFVKLQVSQEEFLCMKVLLLLNTIPLEGLRSQTQFEEMRSSYIRELIKAIGLRQKGVVSSSQRFYQLTKLLDNLHDLVKQLHLYCLNTFIQSRALSVEFPEMMSEVIAAQLPKILAGMVKPLLFHKK		enhanced the reporter enzyme activity

From patent publication US20070192880A1, “Horming response element binding transregulators” (UNIVERSITY OF ROCHESTER, priority 2003, published 2007)
